Experimental data as given in patent US20240240203A1.

Target: Ad5 hexon capsid protein with DogTag inserted into the HVR5 loop, on Ad5 virions (Ad5-HVR5-DogTag) (human adenovirus serotype 5 (Ad5)) (UniProt P04133)

In the case of “polyhistidine-tagged recombinant DogCatcher with 18 copies of the NANP repeat sequence from the Plasmodium falciparum circumsporozoite protein fused to the C-terminus”, the ligand coverage (% hexon) was over 90%.
